According to article PMC6526958:

Columns and labels:
[1] = substrate: Nc1ncnc2c1ncn2[C@@H]1O[C@H](COP(=O)(O)O)[C@@H](O)[C@H]1O; experiment: radiometric CD73 assay, membrane preparations of MDA-MB-231 cells; assay type: biochemical, human; settings: other: substrate AMP; membrane preparation; 37.0 °C
[2] = substrate: Nc1ncnc2c1ncn2[C@@H]1O[C@H](COP(=O)(O)O)[C@@H](O)[C@H]1O; experiment: purified protein, by the assay type; assay type: biochemical, human; settings: other: substrate AMP

Protein	Km [1] [µM]	Km [2] [µM]
membrane-bound CD73 (MDA-MB-231 membrane preparation) (Homo sapiens) (protein) WELTILHTNDVHSRLEQTSEDSSKCVNASRCMGGVARLFTKVQQIRRAEPNVLLLDAGDQYQGTIWFTVYKGAEVAHFMNALRYDAMALGNHEFDNGVEGLIEPLLKEAKFPILSANIKAKGPLASQISGLYLPYKVLPVGDEVVGIVGYTSKETPFLSNPGTNLVFEDEITALQPEVDKLKTLNVNKIIALGHSGFEMDKLIAQKVRGVDVVVGGHSNTFLYTGNPPSKEVPAGKYPFIVTSDDGRKVPVVQAYAFGKYLGYLKIEFDERGNVISSHGNPILLNSSIPEDPSIKADINKWRIKLDNYSTQELGKTIVYLDGSSQSCRFRECNMGNLICDAMINNNLRHTDEMFWNHVSMCILNGGGIRSPIDERNNGTITWENLAAVLPFGGTFDLVQLKGSTLKKAFEHSVHRYGQSTGEFLQVGGIHVVYDLSRKPGDRVVKLDVLCTKCRVPSYDPLKMDEVYKVILPNFLANGGDGFQMIKDELLRHDSGDQDINVVSTYISKMKVIYPAVEGRIKFSTGSHCHGSFSLIFLSLWAVIFVLYQ	14.8 ± 2.1	
recombinant soluble human CD73 (Homo sapiens) (protein) ELTILHTNDVHSRLEQTSEDSSKCVNASRCMGGVARLFTKVQQIRRAEPNVLLLDAGDQYQGTIWFTVYKGAEVAHFMNALRYDAMALGNHEFDNGVEGLIEPLLKEAKFPILSANIKAKGPLASQISGLYLPYKVLPVGDEVVGIVGYTSKETPFLSNPGTNLVFEDEITALQPEVDKLKTLNVNKIIALGHSGFEMDKLIAQKVRGVDVVVGGHSNTFLYTGNPPSKEVPAGKYPFIVTSDDGRKVPVVQAYAFGKYLGYLKIEFDERGNVISSHGNPILLNSSIPEDPSIKADINKWRIKLDNYSTQELGKTIVYLDGSSQSCRFRECNMGNLICDAMINNNLRHTDEMFWNHVSMCILNGGGIRSPIDERNNGTITWENLAAVLPFGGTFDLVQLKGSTLKKAFEHSVHRYGQSTGEFLQVGGIHVVYDLSRKPGDRVVKLDVLCTKCRVPSYDPLKMDEVYKVILPNFLANGGDGFQMIKDELLRHDSGDQDINVVSTYISKMKVIYPAVEGRIKFS		17.0 ± 2.1
